Among the data in PMC6416295 are Kd values, retold here.

In data set [1] the test system is HlyU (Vibrio vulnificus MO6-24/O). The data set is described as follows: EMSA. Conditions: 10 mM Tris-Cl pH 7.5, 50 mM KCl, 5 mM MgCl2, 5% glycerol, 0.1 ug poly(dI-dC) in 20 ul, 5 nM DNA, 25 C, 0.5 h; 6% native PAGE.
For data set [2] the test system is unchanged. As to the kind of experiment: EMSA. Particulars: 10 mM Tris-Cl pH 7.5, 50 mM KCl, 5 mM MgCl2, 5% glycerol, 0.1 ug poly(dI-dC) in 20 ul, 5 nM DNA, 25 C, 0.5 h; 6% native PAGE. This is another data set of the same source.

For PrtxA 264-bp, the Kd in data set [1] worked out at 54.8 nM; in data set [2], 25.2 nM.
